T1: CD79b (UniProt P40259 29-229, limits assumed)
T1 construct: whole, on cells; Endogenous CD79b on human lymphoma cell lines
T1 sequence (looked up): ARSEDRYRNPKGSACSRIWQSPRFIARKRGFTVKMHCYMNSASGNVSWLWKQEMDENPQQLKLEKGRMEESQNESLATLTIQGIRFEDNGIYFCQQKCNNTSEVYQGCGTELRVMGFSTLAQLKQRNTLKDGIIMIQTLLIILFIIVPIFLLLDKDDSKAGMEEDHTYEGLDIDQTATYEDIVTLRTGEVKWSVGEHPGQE

B1: CARLY1 monoclonal murine antibody against CD79b (antibody, V domains shown)
VH: QVQLQQPGAELVRPGASVKLSCKASGYTFTSYWMNWVKQRPGQGLEWIGMIDPSDSETHYNQMFRDKATLTVDKPSNTAYMQLSRLTSEDSAVYYCARALGYWGQGTSVTVSS
VL: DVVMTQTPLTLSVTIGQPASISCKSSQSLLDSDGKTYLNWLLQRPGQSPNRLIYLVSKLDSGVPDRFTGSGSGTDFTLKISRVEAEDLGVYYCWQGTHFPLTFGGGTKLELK
notes: Murine monoclonal from a hybridoma, made by an external service; The variable domains are tied to the name CARLY 1 in the definition section
B2: CARLY2 monoclonal murine antibody against CD79b (antibody, V domains shown)
VH: QVQLQQPGAELVRPGASVKLSCKASGYTFTTYWMNWVKQRPGQGLEWIGMIDPSDSETHYNQMFKDKATLTVDKSSTTAYMQLSSLTSEDSAVYYCARTLSYWGQGTLVTVSA
VL: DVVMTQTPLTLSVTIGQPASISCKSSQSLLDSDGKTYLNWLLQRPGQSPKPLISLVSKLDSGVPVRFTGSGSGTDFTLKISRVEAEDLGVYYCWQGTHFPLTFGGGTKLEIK
notes: Murine monoclonal from a hybridoma; it was detected with anti-mouse IgG-Alexa647 in confocal microscopy
B3: CARLY3 monoclonal murine antibody against CD79b (antibody, V domains shown)
VH: QVQLQQPGAELVRPGASLKLSCKTSGYTFTDYWMNWVKQRPGQGLEWIGMIDPSDSETHYNQMFKDKATLTVDKSSSTAYMQLSSLTSEDSAVYYCTRNLNYWGQGTTLTVSS
VL: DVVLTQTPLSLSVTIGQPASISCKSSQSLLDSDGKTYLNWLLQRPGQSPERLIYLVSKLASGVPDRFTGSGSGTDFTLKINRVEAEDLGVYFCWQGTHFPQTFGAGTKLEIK
notes: as for B2

What follows are binders tested against T1, CD79b (assay: flow cytometry on NHL cell lines Ramos and Daudi).

Binding result, binds:
B1
B2
B3
